Publication PMC11582362

T1: ADAR1-dsRBD3 (dsRBD3-short) (Homo sapiens, UniProt P55265 716-797)
T1 sequence: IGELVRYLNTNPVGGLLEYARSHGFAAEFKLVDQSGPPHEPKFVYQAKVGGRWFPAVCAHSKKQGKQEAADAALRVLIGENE

T2: ADAR1-dsRBD3 interface mutant (monomeric) (Homo sapiens, UniProt P55265 708-801, V747A;D748Q;W768V;C773S)
T2 sequence: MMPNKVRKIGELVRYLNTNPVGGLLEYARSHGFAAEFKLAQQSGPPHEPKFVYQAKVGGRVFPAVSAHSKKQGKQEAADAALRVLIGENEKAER

T3: ADAR1-dsRBD3 wild-type (dsRBD3-mid) (Homo sapiens, UniProt P55265 708-801)
T3 sequence: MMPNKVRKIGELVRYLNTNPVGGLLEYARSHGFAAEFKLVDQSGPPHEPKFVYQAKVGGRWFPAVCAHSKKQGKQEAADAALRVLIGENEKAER


Key:
[1] = target: T1, ADAR1-dsRBD3 (dsRBD3-short); assay: X-ray crystallography; 2.8 A; crystals from 50 mM Na cacodylate pH 6.0, 5% PEG 4000, 30 mM CaCl2, 230 mM KCl; ITC: 25 mM Na-phosphate pH 7.0, 100 mM NaCl, 2 mM 2-mercaptoethanol, 25 °C; 2.25 uM dsRNA in cell, 80 uM protein in syringe; details: protein: recombinant; tags: His6 removed by TEV (residual residues remain); chain copies: 2; self-duplex of 2 copies, 11 bp, 3' overhang 2 nt (CG) on each strand; overhangs pair to form a continuous pseudo-A-form helix; 3 strands per asymmetric unit
[2] = target: T2, ADAR1-dsRBD3 interface mutant …; assay: ITC; N = 3.60 ± 0.36; ITC: 25 mM Na-phosphate pH 7.0, 100 mM NaCl, 2 mM 2-mercaptoethanol, 25 °C; 2.25 uM dsRNA in cell, 80 uM protein in syringe; details: protein: recombinant; tags: N-terminal His6 (uncleaved); blunt
[3] = target: T3, ADAR1-dsRBD3 wild-type (dsRBD3-mid); assay: ITC; N = 4.15 ± 0.42; source data sheet gives 123 nM; ITC: 25 mM Na-phosphate pH 7.0, 100 mM NaCl, 2 mM 2-mercaptoethanol, 25 °C; 2.25 uM dsRNA in cell, 80 uM protein in syringe; details: protein: recombinant; tags: N-terminal His6 (uncleaved); chain copies: 2; blunt

Binder | binding result [1] | Kd [2] [nM] | Kd [3] [nM]
13-nt self-complementary RNA (dsRNA) RNA 1: CGAAGCCUUCGCG RNA 2: CGAAGCCUUCGCG | binds |  | 
24 bp dsRNA duplex (dsRNA) RNA 1: GGGAUCAAUAUGCUAAGCGAUCCC RNA 2: GGGAUCGCUUAGCAUAUUGAUCCC |  | 410 ± 65 | 125 ± 25
